Laboratory results taken from EP0629133B1, “PEPTIDE-METAL ION PHARMACEUTICAL APPLICATIONS” (Rhomed, Incorporated, priority 1992, dated 1993).
Like-named read-outs stand apart in the source and are kept apart here. Ends that are not written are not given here.

Key:
[1] = set-up: species or system adult female Fischer 344 rats; conditions: rat, in vivo
Description: The clearance rates of the ^99mTc-IKVAV-containing peptide of Example 4 was evaluated in adult female Fischer 344 rats at 2 hours after injection. Each experimental group was composed of three animals. Each animal was anaesthetised with ketamine and the bile duct and bladder were cannulated. Blood was collected over various periods of time from the jugular vein.

[2] = freshly radiolabelled
[3] = set-up: species or system tight-skin (Tsk) mouse; conditions: mouse, in vivo
Description: Biodistribution was also studied in a lung disease model which used tight-skin mice with genetic emphysema. The tight-skin (Tsk) mouse is a genetic mutant caused by a dominant gene deficiency of serum anti-elastase. Heterozygous (Tsk/+) animals show multiple skin connective tissue abnormalities resembling scleroderma as well as an increased growth of cartilage, bone, and small tendons with hyperplasia of the tendon sheaths. The Tsk trait is associated with progressive pulmonary emphysema and development of right ventricular hypertrophy, as well as with lung collagen changes. These mice, as well as genetic control mice (pallid), were obtained from The Jackson Laboratory (Bar Harbor, ME). The relative localisation of ^99mTc-IKVAV-peptide of Example 4 at all time points examined (10, 30, and 120 minutes post-injection), was decreased in the lungs of animals with emphysema relative to paired control animals.

[4] = set-up: species or system mice; conditions: mouse, in vivo
Description: Some studies involved pre-incubation of the ^99mTc-IKVAV-containing peptide in whole blood prior to injection and determination of biodistribution. In these studies, whole human blood was obtained from a healthy adult male donor and collected into Vacutainer tubes containing EDTA. After mixing to insure proper dissolution of the EDTA, approximately 2.5 ml of the whole blood was removed and mixed with 0.25 ml of ^99mTc-peptide. The mixture was allowed to incubate 30 minutes at room temperature. After 30 minutes, aliquots of 0.1 ml were injected into the tail vein of the mice. The amount of radioactivity in the circulation for ^99mTc-IKVAV-containing peptide pre-incubated in whole blood was higher than in animals receiving ^99mTc-IKVAV-containing peptide without incubation in blood.

[5] = Biodistribution of 99mTc-YIGSR-peptide after tail vein injection; assay type: in vivo, adult female Swiss-Webster mice; conditions: biodistribution studies
Description: The biodistribution of the ^99mTc-YIGSR-peptide of Example 12 was evaluated in adult female Swiss-Webster mice (approximately 19 g) at selected times (10, 30, and 120 minutes) after injection into the tail vein. Each experimental group was composed of at least five animals, with each animal receiving 0.1 ml containing 5 µg of peptide (1 µCi/µg). Animals were sacrificed by Halothane overdose, and selected organs dissected, weighed, and associated radioactivity determined. Data were analysed using a computer program specifically designed for ^99mTc-labelled preparations. The percent dose per organ for blood, bone, and muscle were calculated assuming 7, 8.2, and 40% of total body weight, respectively, for these tissues.

[6] = test system: whole blood clots; assay: In vitro binding of 99mTc-YIGSR-containing peptide to whole blood clots; assay type: cell-based, human; conditions: 90 minutes, 0.5 ml of whole blood clots, 0.4 to 50 µg of radiolabelled peptide
Description: (§1) In other experiments, the peptide of Example 12, labelled as in Example 13, was used for in vitro binding studies. In these studies, the ^99mTc-YIGSR-containing peptide was incubated for 90 minutes with either 0.5 ml of whole blood clots, using from 0.4 to 50 µg of radiolabelled peptide, or with approximately 10^7 platelets, using from 2 to 200 µg of radiolabelled peptide.

[7] = test system: platelets; assay: In vitro binding of 99mTc-YIGSR-containing peptide to platelets; assay type: cell-based, human; conditions: 90 minutes, approximately 10^7 platelets, 2 to 200 µg of radiolabelled peptide
Description: as §1

[8] = Clearance rates of 99mTc-YIGSR-peptide (plasma, urine, bile; cannulated animals); assay type: in vivo, adult female Sprague-Dawley rats
Description: The clearance rates of the ^99mTc-YIGSR-peptide of Example 12 was evaluated in adult female Sprague-Dawley rats at 2 hours after injection. Each experimental group was composed of three animals. Each animal was anaesthetised with ketamine and the bile duct and bladder were cannulated. Blood was collected over various periods of time from the jugular vein. […] In biodistribution studies, the highest amount of radioactivity was found in the kidneys, and is consistent with the rat clearance data. No major accumulation of radioactivity was found in any organ examined (other than kidney), and at later times (2 and 4 hours post injection) no re-distribution of the radiolabel was noted.

[9] = Biodistribution after pre-incubation of 99mTc-YIGSR-peptide in whole human blood; assay type: in vivo, mice; conditions: pre-incubated 30 minutes in whole human blood, compared with no incubation in blood
Description: Some studies involved pre-incubation of the ^99mTc-YIGSR-peptide in whole blood prior to injection and determination of biodistribution (Table 7). In these studies, whole human blood was obtained from a healthy adult donor and collected into Vacutainer tubes containing EDTA. After mixing to insure proper dissolution of the EDTA, approximately 2.5 ml of the whole blood was removed and mixed with 0.25 ml of ^99mTc-YIGSR-peptide. The mixture was allowed to incubate 30 minutes at room temperature. After 30 minutes, aliquots of 0.1 ml were injected into the tail vein of the mice. The amount of radioactivity in the circulation for ^99mTc-YIGSR-peptide of Example 12 pre-incubated in whole blood was similar to that in animals receiving ^99mTc-YIGSR-peptide without incubation in blood.

[10] = test system: thromboembolism; assay: Diagnostic imaging of thrombosis in a patient (gamma scintigraphy or SPECT); assay type: in vivo; conditions: kit of Examples 12, 18, 19, or 20, i.v., imaged at 30 minute intervals
Description: A kit of Examples 12, 18, 19, or 20 is used in to localise thromboembolism in a patient. After radiolabelling with ^99mTc as in Example 13, the ^99mTc-YIGSR-peptide is injected intravenously. Starting immediately upon injection, the patient is imaged, using conventional gamma scintigraphy or SPECT imaging, and is imaged at 30 minute intervals thereafter.

| Substance | bile clearance [1] [%] | clearance rate from the plasma [1] [mL/min] | injected dose cleared through urine [1] [%] | particles under a phase contrast microscope [2] | relative localisation in the lungs [3] | amount of radioactivity in the circulation [4] | lung uptake [4] | organ with the highest amount of radioactivity [5] | binding to whole blood clots [6] | binding to platelets [7] | bile clearance ([8]; at two hours) [%] | injected doses cleared through urine ([8]; at two hours) [%] | clearance rate from the plasma ([8]; rats) [mL/min] | amount of radioactivity in the circulation [9] | appearance of sites of thromboembolism by scintigraphy [10] |
| --- | --- | --- | --- | --- | --- | --- | --- | --- | --- | --- | --- | --- | --- | --- | --- |
| CSRARKQAASIKVAVSADR [^99mTc-IKVAV-containing peptide] | 0.9 ± 0.3 | 2.4 | 10.8 ± 4.9 | No particles were visible | decreased | higher | significantly decreased | – | – | – | – | – | – | – | – |
| H-CDPGYIGSR [^99mTc-YIGSR-peptide] | – | – | – | – | – | – | – | kidneys | dose-response relationship | dose-response relationship | 6.9 ± 0.3 | 31.2 ± 9.1 | 2.6 | similar | photon-rich image locations |
